Patent US20180312579A1 (Genentech, published 2018)

Legend:
[1] = target: T1, human RSPO1 with C-terminal HA tag, stably expressed in 293 cells (human, UniProt Q2MKA7 21-263); assay: IHC, FFPE 293 cell pellet, RSPO1 Hi; - = not significant staining
T1 construct: also called hRSPO1; RSPO1 Hi

[2] = target: T2, human RSPO3 with C-terminal HA tag, stably expressed in 293 cells (human, UniProt Q9BXY4 22-272); assay: IHC, FFPE 293 cell pellet, RSPO3 Med
T2 construct: Whole open reading frame expressed in HEK-293 cells (high, medium, low); FFPE pellets; also called hRSPO3; RSPO3 Hi
T2 sequence: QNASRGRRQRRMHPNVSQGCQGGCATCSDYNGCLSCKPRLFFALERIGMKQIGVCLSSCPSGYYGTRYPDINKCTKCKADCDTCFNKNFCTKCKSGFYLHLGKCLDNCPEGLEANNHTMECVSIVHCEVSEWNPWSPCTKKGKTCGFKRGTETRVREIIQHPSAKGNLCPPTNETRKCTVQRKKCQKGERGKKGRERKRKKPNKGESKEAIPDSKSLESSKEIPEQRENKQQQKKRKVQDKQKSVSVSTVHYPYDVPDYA

[3] = target: T3, human RSPO4 with C-terminal HA tag, stably expressed in 293 cells (human, UniProt Q2I0M5 20-234); assay: IHC, FFPE 293 cell pellet, RSPO4 Hi; - = not significant staining
T3 construct: also called hRSPO4; RSPO4 Hi

[4] = target: T2, human RSPO3 with C-terminal HA tag, …; assay: IHC, FFPE 293 cell pellet, RSPO3 Low
[5] = target: T2, human RSPO3 with C-terminal HA tag, …; assay: IHC, FFPE 293 cell pellet, RSPO3 Hi
[6] = target: T4, FLAG-tagged human RSPO3 (Genentech) (human, UniProt Q9BXY4 22-272); assay: competitive binding ELISA: titrated against biotinylated RNF43-Flag (RNF43-ECD) binding to plate-coated hRSPO3; signal = bound RNF43, normalized OD
T4 construct: also called hRSPO3; RSPO3 coated plates; not shown: FLAG tag
T4 sequence: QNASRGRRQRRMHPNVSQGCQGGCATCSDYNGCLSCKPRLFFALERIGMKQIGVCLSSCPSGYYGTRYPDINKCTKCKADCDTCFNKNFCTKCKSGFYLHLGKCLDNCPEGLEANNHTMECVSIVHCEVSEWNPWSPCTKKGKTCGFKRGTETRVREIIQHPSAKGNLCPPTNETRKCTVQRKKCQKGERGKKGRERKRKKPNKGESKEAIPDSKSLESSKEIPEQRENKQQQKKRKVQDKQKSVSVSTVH

[7] = target: T4, FLAG-tagged human RSPO3 (Genentech); assay: competitive binding ELISA: antibody titrated against LGR4-Fc (LGR4-ECD) binding to plate-coated hRSPO3; signal = bound LGR4-Fc, OD(450/630)/OD no antibody
Procedure: To measure the activity of anti-RSPO antibodies in blocking the binding of LGR4 and -5 ECDs to RSPOs, MaxiSorp 384-well microwell plates (Thermo Scientific Nunc, Roskilde, Denmark) were coated with 25 ul/well of 0.5 μg/ml hRSPO2 or hRSPO3 (Genentech) in 50 mM carbonate buffer, pH 9.6, overnight at 4° C. Plates were blocked with at 80 ul/well of 0.5% bovine serum albumin, 15 parts per million Proclin 300 in phosphate buffered saline (PBS), pH 7.4, for 1 hour. Serially diluted anti-RSPO antibodies ([…] in […] serial dilution plus buffer blank) containing 0.1 μg/ml LGR4-Fc or 0.015 μg/ml LGR5-Fc in assay buffer (0.5% BSA, 0.05% polysorbate 20, 15 parts per million Proclin 300 in PBS) were added to the plates at 25 ul/well. After a 2-hour incubation, LGR4-Fc and LGR5-Fc bound to the plates were detected using peroxidase labeled goat F(ab′)2 anti-human Fc (Jackson ImmunoResearch, West Grove, Pa.). After a 1 hour incubation, the substrate 3,3′,5,5′-tetramethyl benzidine (Moss Inc., Pasadena, Md.) was added to the plates and the reaction was stopped by adding 1 M phosphoric acid. Plates were washed with PBS, pH 7.4, containing 0.05% tween 20, between steps and all the incubation steps following the coating step were performed at room temperature on an orbital shaker. Absorbance was read at 450 nm on a multiskan Ascent reader (Thermo Scientific, Hudson, N.H.).

[8] = target: T5, mouse RSPO2 (mouse, UniProt Q8BFU0 22-205, limits assumed); assay: cell-based or functional assay
[9] = target: T6, cynomolgus RSPO3 (cynomolgus, UniProt A0A2K5UTQ7 22-273); assay: cell-based or functional assay
T6 sequence: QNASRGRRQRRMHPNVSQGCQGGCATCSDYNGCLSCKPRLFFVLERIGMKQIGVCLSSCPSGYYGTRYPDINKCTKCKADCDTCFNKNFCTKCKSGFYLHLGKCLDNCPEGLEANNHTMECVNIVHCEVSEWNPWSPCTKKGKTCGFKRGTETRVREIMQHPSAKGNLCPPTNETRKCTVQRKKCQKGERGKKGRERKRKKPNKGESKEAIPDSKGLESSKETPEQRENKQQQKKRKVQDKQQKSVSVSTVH

[10] = target: recombinant human RSPO2 (human, UniProt Q6UXX9 22-243); assay: cell-based or functional assay
[11] = target: T7, mouse RSPO3 (mouse, UniProt Q2TJ95 22-277, limits assumed); assay: cell-based or functional assay
T7 sequence (looked up): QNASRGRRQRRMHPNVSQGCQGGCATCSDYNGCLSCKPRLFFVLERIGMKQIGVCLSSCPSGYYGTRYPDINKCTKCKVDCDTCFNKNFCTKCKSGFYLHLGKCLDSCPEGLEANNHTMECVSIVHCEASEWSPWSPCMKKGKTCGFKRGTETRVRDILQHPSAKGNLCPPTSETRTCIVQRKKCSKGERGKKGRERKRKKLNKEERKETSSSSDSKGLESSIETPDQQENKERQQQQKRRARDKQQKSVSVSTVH

[12] = target: T8, recombinant human RSPO3 (human, UniProt Q9BXY4 22-272); assay: cell-based or functional assay
T8 sequence: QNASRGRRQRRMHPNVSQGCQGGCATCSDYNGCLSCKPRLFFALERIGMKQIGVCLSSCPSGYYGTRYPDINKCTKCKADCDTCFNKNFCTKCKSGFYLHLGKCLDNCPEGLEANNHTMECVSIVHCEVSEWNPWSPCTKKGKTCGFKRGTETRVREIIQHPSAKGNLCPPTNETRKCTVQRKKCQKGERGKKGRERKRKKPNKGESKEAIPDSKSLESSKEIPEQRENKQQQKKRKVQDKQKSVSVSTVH

[13] = target: T9, cynomolgus RSPO2 (cynomolgus, UniProt G7PCH9 22-243); assay: cell-based or functional assay
[14] = target: T6, cynomolgus RSPO3; assay: SPR (Biacore) with the Fab; table row RSPO3, Affinity (nM) Fab
Procedure: (§1) For kinetic measurements, two-fold serial dilutions of anti-RSPO Fabs were injected in HBS-P buffer (0.01M HEPES pH 7.4, 0.15M NaCl, 0.005% surfactant P20) at 25° C. with a flow rate of 30 μl/min. Association rates (kₒₙ) and dissociation rates (koff) were calculated using a simple one-to-one Langmuir binding model (BIAcore Evaluation Software version 3.2). The equilibrium dissociation constant (KD) was calculated as the ratio koff/kₒₙ.
(§2) Surface plasmon resonance was used to confirm binding specificities and affinities to human, mouse, and cynomolgus RSPOs. Fab fragments from antibody clones were digested, purified, and then assayed using a BIAcore™-2000 instrument for binding to recombinant proteins. Antibodies fell into three groups: those specific to RSPO2, those specific to RSPO3, and those with some degree of cross-reactivity (FIG. 5).

[15] = target: T7, mouse RSPO3; assay: as above
Procedure: as §1, §2

[16] = target: T8, recombinant human RSPO3; assay: as above
Procedure: as §1, §2

[17] = target: T5, mouse RSPO2; assay: SPR (Biacore) with the Fab; table row RSPO2, Affinity (nM) Fab
Procedure: as §1, §2

[18] = target: T9, cynomolgus RSPO2; assay: as above
Procedure: as §1, §2

[19] = target: T6, cynomolgus RSPO3; assay: SPR, BIAcore T200, cyno RSPO3 immobilized, antibody injected
Procedure: (§3) The binding affinity of the antibodies in this section was determined by BIAcore™ T200 Format. Briefly, BIAcore™ research grade CMS chips were activated with 1-ethyl-3-(3-dimethylaminopropyl) carbodiimide (EDC) and N-hydroxysuccinimide (NETS) reagents according to the supplier's instructions. huRSPO3 was immobilized to achieve approximately 50 response units (RU) in each flow cell. Unreacted coupling groups were blocked with 1M ethanolamine. For kinetics measurements, Four-fold serial dilutions of variant antibody was injected in HBS-P buffer (0.01M HEPES pH7.4, 0.15M NaCl, 0.005% surfactant P20) at 25° C. with a flow rate of 30 μl/min. Association rates (kon) and dissociation rates (koff) were calculated using a 1:1 Langmuir binding model (BIAcore™ T200 Evaluation Software version 2.0). The equilibrium dissociation constant (Kd) was calculated as the ratio koff/kon.
(§4) The hu5D6v4.1 and the chimeric 5D6 were tested for their ability to bind cyno and mouse RSPO3 as described above except that cyno or murine RSPO3 replaced huRSPO3 in the binding assay. Binding properties for the humanized antibodies are shown below in Table 5.

[20] = target: T8, recombinant human RSPO3; assay: SPR, BIAcore T200, huRSPO3 immobilized, antibody injected
Procedure: as §3

[21] = target: T7, mouse RSPO3; assay: SPR, BIAcore T200, murine RSPO3 immobilized, antibody injected
Procedure: as §3, §4

T9 sequence (G7PCH9 entry or part of it): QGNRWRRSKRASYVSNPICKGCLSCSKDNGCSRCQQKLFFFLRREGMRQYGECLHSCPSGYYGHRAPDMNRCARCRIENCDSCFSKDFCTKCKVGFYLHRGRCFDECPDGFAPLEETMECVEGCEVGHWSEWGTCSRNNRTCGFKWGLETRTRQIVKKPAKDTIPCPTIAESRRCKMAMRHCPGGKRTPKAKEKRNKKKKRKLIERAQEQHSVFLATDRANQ
T5 sequence (Q8BFU0 22-205 limits assumed): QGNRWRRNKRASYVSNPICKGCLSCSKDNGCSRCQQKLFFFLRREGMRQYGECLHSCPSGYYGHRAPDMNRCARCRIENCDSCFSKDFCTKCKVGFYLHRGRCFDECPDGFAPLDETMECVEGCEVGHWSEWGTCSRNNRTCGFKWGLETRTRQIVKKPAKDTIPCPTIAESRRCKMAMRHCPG
T1 sequence (Q2MKA7 other isoform, or with tags, fused parts or gaps limits assumed): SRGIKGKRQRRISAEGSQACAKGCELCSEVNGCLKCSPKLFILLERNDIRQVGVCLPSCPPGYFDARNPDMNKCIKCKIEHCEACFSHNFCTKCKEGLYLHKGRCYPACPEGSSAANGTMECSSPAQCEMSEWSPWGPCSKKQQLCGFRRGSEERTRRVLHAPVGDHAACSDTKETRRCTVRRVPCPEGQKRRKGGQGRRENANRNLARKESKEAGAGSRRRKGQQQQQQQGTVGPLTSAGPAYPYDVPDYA
Chain of recombinant human RSPO2 (Q6UXX9 22-243): as the sequence (G7PCH9 entry or part of it) above, with A160V, P165L, A178T counted along it
T3 sequence (Q2I0M5 other isoform, or with tags, fused parts or gaps limits assumed): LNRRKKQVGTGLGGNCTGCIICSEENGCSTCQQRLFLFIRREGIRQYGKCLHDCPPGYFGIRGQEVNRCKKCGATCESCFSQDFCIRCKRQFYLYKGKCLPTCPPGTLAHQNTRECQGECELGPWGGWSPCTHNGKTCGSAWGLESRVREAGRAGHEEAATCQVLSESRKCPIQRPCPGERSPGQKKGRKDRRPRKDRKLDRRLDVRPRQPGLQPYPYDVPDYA

B1: 6E9 (antibody, V domains shown)
VH: QVQLKESGPGLVQPSQSLSITCTVSGFSLTSYGVHWVRQSPGKGLEWLGVIWSGGSTDYNAAFISRLSISKDNSKSQVFFKMNSLQANDTAIYYCARNDGYYYFDYWGQGTTLTVSS
VL: DIKMTQSTSSLSASLGDRVTISCRASQDISNYLNWYQQKPDGTVKLLIYYTSRLHSGVPSRFSGSGSGTDYSLTISNLEQEDIATYFCQQGDTLPPAFGGGTKLEIK
notes: also called monoclonal antibody 6E9
Does B1 bind [1]?
Result: no binding

And the “percentage of cells staining” value [2]?
Its value is 70%.

Does B1 bind [3]?
Result: no binding

And the “percentage of cells staining” value [4]?
The value was 50%.

And the “percentage of cells staining” value [5]?
The value was > 95%.

And the “IC50 (read off the curve)” value [6]?
The value was ~0.08 µg/mL.

What about the “IC50 (read off the curve)” value [7] of the same binder?
The value was ~0.1 µg/mL.

What about the “IC50, WNT luciferase reporter, bivalent antibody” value (“IC50, WNT luciferase reporter” below) [8] of the same binder?
The value was > 500 nM.

And the “IC50, WNT luciferase reporter” value [9]?
Its value is 6.5 nM.

And the “IC50, WNT luciferase reporter” value [10]?
Its value is > 500 nM.

What about the “IC50, WNT luciferase reporter” value [11] of the same binder?
The value was 140 nM.

What about the “IC50, WNT luciferase reporter” value [12] of the same binder?
Its value is 5.6 nM.

And the “IC50, WNT luciferase reporter” value [13]?
The value was > 500 nM.

B2: 5E11 (Fab, V domains shown)
VH: QVQLKQSGPGLVQPSQSLSITCTVSGFSLSSYAVHWVRQSPGEGLEWLGVIWSGGSTDYNAAFISRMSITKDNSKSQVFFKMNSLQADDTAIYFCARNDGYYYFDYWGQGTTLTVSS
VL: DIVMTQSTSSLSASLGDRVTISCRASQDISNYLNWYQQKPDGTVKLLIYYTSRLHSGVPSRFSGSGSGTDYSLTISNLEKEDVATYFCQHGDTLPPTFGGGTKLEIK
notes: also called Fab of 5E11; 5E11 Fab
For B2, which Kd [14] is on record?
Its Kd is 39 nM.

And the Kd [15]?
Its Kd is 98 nM.

What about the Kd [16] of the same binder?
The Kd was 10.6 nM.

Does B2 bind [17]?
Result: no binding

Does B2 bind [18]?
Result: no binding

B3: chimeric 5D6 (antibody, V domains shown)
VH: EVQLQESGPSLVKPSQTLSLTCSVTGDSITSGYWNWIRKFPGNKFEYMGYISYSGKTYQNPSLKSRISITRDTSKNQYHLQLNSVTTEDTATYYCATYYGYGGPWFAYWGQGTLVTVSA
VL: DIVLTQSPSSMYASLGERVTITCKASQDIDSYLSWFQQKPGKSPKTLIYLTNRLVDGVPSRFSGSGSGQDYSLTISSLEYEDMGIYYCLHYDEFPLTFGAGTKLEIK
notes: also called 5D6 chimera
For B3, which Kd [19] is on record?
Its Kd is 0.0453 nM.

What about the koff [19] of the same binder?
Its koff is 0.000224 s⁻¹.

What about the kon [19] of the same binder?
The kon was 4.96e+06 M⁻¹ s⁻¹.

What about the Kd [20] of the same binder?
The Kd was 0.0331 nM.

What about the koff [20] of the same binder?
The koff was 0.000116 s⁻¹.

And the kon [20]?
Its kon is 3.51e+06 M⁻¹ s⁻¹.

What about the Kd [21] of the same binder?
Its Kd is 0.0578 nM.

What about the koff [21] of the same binder?
Its koff is 0.000237 s⁻¹.

What about the kon [21] of the same binder?
The kon was 4.1e+06 M⁻¹ s⁻¹.

B4: hu5D6v4.1 (Fab, V domains shown)
VH: EVQLVESGPGLVKPSETLSLTCTVSGDSITSGYWNWIRQPPGKGLEWIGYISYSGKTYQNPSLKSRVTISRDTSKNQFSLKLSSVTAADTAVYYCATYYGYGGPWFAYWGQGTLVTVSS
VL: DIQMTQSPSSLSASVGDRVTITCKASQDIDSYLSWFQQKPGKAPKTLIYLTNRLVDGVPSRFSGSGSGTDYTLTISSLQPEDFATYYCLHYDEFPLTFGQGTKVEIK
notes: Humanized 5D6 variant; also called v1+T69 (LC)+(W47+I48+V67+F78 (HC))
How did the Kd [19] turn out when B4 was run?
The Kd was 0.0811 nM.

What about the koff [19] of the same binder?
Its koff is 0.000434 s⁻¹.

What about the kon [19] of the same binder?
Its kon is 5.35e+06 M⁻¹ s⁻¹.

And the Kd [20]?
The Kd was 0.0635 nM.

What about the koff [20] of the same binder?
Its koff is 0.000229 s⁻¹.

And the kon [20]?
The kon was 3.6e+06 M⁻¹ s⁻¹.

And the Kd [21]?
Its Kd is 0.0993 nM.

And the koff [21]?
Its koff is 0.000423 s⁻¹.

What about the kon [21] of the same binder?
Its kon is 4.26e+06 M⁻¹ s⁻¹.
